{"source": "patent US9888679B2", "about": "“Protection of progenitor cells and regulation of their differentiation” (Proteobioactives Pty Ltd, priority 2007, dated 2018)", "molecules": {"B1": {"name": "rhNC4: recombinant human non collagenous NC4 domain of the alpha-1 chain of type IX collagen, expressed by K. lactis (protein, listed as Homo sapiens)", "chain": "AVKRRPRFPVNSNSNGGNELCPKIRIGQDDLPGFDLISQFQVDKAASRRAIQRVVGSATLQVAYKLGNNVDFRIPTRNLYPSGLPEEYSFLTTFRMTGSTLKKNWNIWQIQDSSGKEQVGIKINGQTQSVVFSYKGLDGSLQTAAFSNLSSLFDSQWHKIMIGVERSSATLFVDCNRIESLPIKPRGPIDIDGFAVLGKLADNPQVSVPFELQWMLIHCDPLRPRRETCHELPARITPSQTTDER"}}, "key": {"ATDC5 cell": {"tested_on": "ATDC5 cell", "assay": "Kinetics of ATDC5 cell growth over 13 days", "assay_type": "cell-based, murine", "details": "rhNC4 (batch PBA-1200P) 5 ug/ml or Insulin 10 ug/ml; 20,000 cells per well at Day 0; FIG. 30", "experimental": "FIG. 30. A bar graph of the kinetics of ATDC5 cell growth induced by rhNC4 (batch PBA-1200P) (5 ug/ml) or Insulin (10 ug/ml) relative to control over 13 days. 20,000 cells per well were seeded at Day 0 (Start) with medium changes every 48 hrs. Insulin treated cultures reached confluence on day 6 and PBA-1200P on day 9. Control cultures also reached confluence on day 9 but in contrast to cultures containing insulin or PBA-1200P ceased to undergo replication."}, "[1]": {"tested_on": "murine ATDC5 progenitor cells", "assay": "Proteoglycan biosynthesis (35S-GAG) in monolayer cultures, maintenance or differentiation media", "assay_type": "cell-based", "source_text": "(§1) FIG. 21. A bar graph of the concentration dependent effects of rhNC4 (batch PBA-1202P) expressed by K. lactis, in the absence (maintenance media, MM) and presence of insulin (10 micrograms/mL) (differentiation media, DM), on the biosynthesis of Proteoglycans (PGs) as determined by the incorporation of radioactively labelled sulfate into the sulfated glycosaminoglycans (^35S-GAG) of PGs after 3 day culture with Murine ATDC5 progenitor cells. The data was expressed as % change relative to control cultures that contained no rhNC4. P<0.05 was statistically significant relative to control cultures.\nFIG. 24. A bar graph of the concentration dependent effects of combinations of rhNC4 (batch PBA-1202P) and Pentosan Polysulfate (PPS) on the biosynthesis of 35S-PGs by monolayer cultures of Murine ATDC5 progenitor cells. Data is expressed relative to control (maintenance media, MM) which was taken as 100%.\nas §1, with “31.” for “21.”\nFIG. 32. A bar graph of the concentration dependent effects of Pentosan Polysulfate (PPS), in the presence of insulin (10 micrograms/mL), on the biosynthesis of Proteoglycans PGs) as determined by the incorporation of radioactively labelled sulfate into the sulfated glycosaminoglycans (^35S-GAG) of PGs after 3 day culture with Murine ATDC5 progenitor cells. The data was expressed as ^35S-GAG radioactivity as counts per minute (CPM) and decays per minute (DPM) relative to control cultures that contained no PPS. P<0.05 was statistically significant relative to control cultures.\nMurine Progenitor cells (cell lines C3H10T1/2 or ATDC5) purchased from RIKEN Cell Bank (Tsukuba, Japan) or human immunoselected Stro-1+ Progenitor cells (Mesoblast Ltd, Melbourne, Australia) were seeded into 50 mL plastic culture flasks containing 1:1 high glucose DMEM/Ham's F-12 medium (Invitrogen) supplemented with 10% FBS (Sigma) and incubated at 37° C., in 5% CO2. […] The experiments were generally terminated after 48 hours incubation when proteoglycan biosynthesis was determined by measuring the incorporation of ^35SO4 into the glycosaminoglycans (^35S-GAGs) as described below.\nThe data was expressed as % change relative to control cultures that contained no rhNC4. […]"}, "Murine ATDC5 cell line": {"tested_on": "Murine ATDC5 cell line", "assay": "Proteoglycan biosynthesis (35S-GAG) in pellet cultures", "assay_type": "cell-based", "details": "pellet cultures, FIG. 22", "source_text": "FIG. 12. A bar graph of the concentration dependent effects of Pentosan Polysulfate (PPS), on the biosynthesis of Proteoglycans (PGs) as determined by the incorporation of radioactively labelled sulfate into the sulfated glycosaminoglycans (^35S-GAG) of PGs in 6 day pellet cultures of murine progenitor cells (ADTC-5). *=p<0.05 relative to control.\nFIG. 22. A bar graph of the concentration dependent effects of rhNC4 (batch PBA-1202P) expressed by K. lactis, in the absence (maintenance media, MM) and presence of insulin (10 micrograms/mL) (differentiation media, DM), on the biosynthesis of Proteoglycans PGs) in pellet cultures of ATDC5 cells. Data is shown as the % change relative to controls taken to be 100%.\nMurine Progenitor cells (cell lines C3H10T1/2 or ATDC5) purchased from RIKEN Cell Bank (Tsukuba, Japan) or human immunoselected Stro-1+ Progenitor cells (Mesoblast Ltd, Melbourne, Australia) were seeded in 2 ml screw-capped sterile centrifuge tubes and the total volume made-up to 1 ml with DMEM-High glucose medium containing 10% FBS. Progenitor cells were then centrifuged at 500 g for 10 min in a swing-out rotor at room temperature. The screw caps were loosened and the tubes placed in an incubator at 37° C., in a 5% CO2/95% air moist atmosphere. The pellets generally formed within 24 hours. Medium was changed daily in the first two days, then once every 2-3 days thereafter. On day 5 the medium was removed and to each tube was added 1 ml with DMEM-High glucose medium containing 10% FBS, 5.0 μCi/ml ^35S-H2SO4 and various concentrations of PPS (0, 0.1, 0.5, 1.0, 2.5, 5.0, 10.0, 20.0, μg/ml) (FIG. 12-15) or rhNC4 (0, 0.1, 0.5, 1.0, 2.0 μg/ml) (FIG. 22). Triplicate cultures were used for all concentration of drugs. The screw caps were loosened and the tubes placed in an incubator at 37° C., in a 5% CO2/95% moist air atmosphere […]. On day 6, 200 μl of stock papain solution [2.5 mg/ml papain, 7.9 mg/ml L-Cystein in papain buffer (0.1 M NaAC, 5 mM EDTA, pH6.0)] was added to each tube. The tubes were tightly capped and incubated at 65° C. for 2 hours. After papain digestion, 4 replicates of 200 μl of papain digested solution were separately transferred to a 96-well micro-titre plate (200 μl/well). The remaining solution was used for the DNA fluorometric assays which were undertaken in triplicate as described above. Biosynthesis of ^35S-GAGs was determined as described for the monolayer cultures and the results expressed as ^35-S-GAGs/μg DNA.\nData is shown as the % of controls taken to be 100%."}}, "note": "“Also recorded” adds a separate entry of the source."}
{"molecule": "B1", "values": [{"measurement": "day on which cultures reached confluence", "setting": "ATDC5 cell", "value": 9, "unit": "days"}, {"measurement": "rhNC4 concentration of maximum effects on PG synthesis", "setting": "[1]; maintenance and differentiation media, FIG. 21", "value": 1, "unit": "microgram/mL"}, {"measurement": "PG synthesis", "setting": "[1]; rhNC4, absence (maintenance media) and presence of insulin (differentiation media), 3 day culture, FIG. 21/31", "value": "stimulated PG synthesis; also recorded: concentration dependent stimulation of PG synthesis"}, {"measurement": "rhNC4 concentration producing the optimum effect on PG synthesis", "setting": "Murine ATDC5 cell line; maintenance media", "value": 0.5, "unit": "micrograms/mL"}, {"measurement": "PG synthesis", "setting": "Murine ATDC5 cell line; rhNC4", "value": "stimulatory effect"}]}
